Sequences and labels used below:
T1: SERF1a (Homo sapiens, UniProt O75920)
T1 construct: Full-length SERF1a cDNA was amplified by PCR; His-tag with thrombin site (N, cleaved yes); made in house; host or cells: E. coli BL21(DE3), pET14b
T1 sequence (O75920 1-62 isoform O75920-2): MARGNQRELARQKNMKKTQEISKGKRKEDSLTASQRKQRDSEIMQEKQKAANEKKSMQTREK

B1: NT17 peptide (N-terminal 17 amino acids of Htt) (peptide, UniProt P42858 1-17, looked up)
peptide: MATLEKLMKAFESLKSF
notes: N-terminal 17 amino acids of huntingtin; source: synthetic peptide (peptide synthesis core, Genomics Research Center, Academia Sinica)
B2: Human SERF1a (small EDRK-rich factor 1a), short form (natural protein, UniProt O75920-2 1-62, looked up)
chain: T1 sequence (O75920 1-62 isoform O75920-2)
notes: Small EDRK-rich factor 1a, human, short form of 62 residues (the long form has 110); full-length cDNA amplified by PCR from GenBank BC021174; 15N-labelled (M9 minimal medium) for the NMR titration; also called rSERF1a; recombinant SERF1a; source: E. coli BL21(DE3), purified (Ni-Sepharose, thrombin cleavage, Mono-S); not shown: His-tag, N-terminal, cleaved

In data set [1] the target is T1, SERF1a. Briefly: Isothermal titration calorimetry of Htt peptides with SERF1a. Type of data set: binding. The following applies: ITC, 250 μM SERF1a injected into 50 μM peptide, 10 mM PB pH 7.4, 26 °C. The method, then:
MicroCal iTC200 (GE) was used for ITC experiments. SERF1a was in 10 mM PB, pH 7.4. For Htt-0, Htt-1, Htt-2, Htt-4, and Htt-5, 300 μM SERF1a in syringe was injected into the cell containing 30 μM Htt peptides. The volume of each injection was 2 μl. For Htt-3 and NT17, 250 μM SERF1a in syringe was injected into the cell containing 50 μM Htt peptides. The volume of each injection was 1.5 μl. The cell of the calorimeter was maintained at 26 °C. ITC analysis software MicroCal Analysis Launcher (GE Healthcare) was used for data analysis.
Background: Isothermal titration calorimetry measures the heat released or taken up as one component is titrated into another.

Data set [2] concerns the target T1, SERF1a. The data set is described as follows: Intrinsic tyrosine fluorescence titration of Aβ or α-synuclein with SERF1a. Type of data set: binding. The following applies: tyrosine fluorescence quenching upon SERF1a titration, fitted.
Data set [3] is described as follows: ThT assay of Aβ and α-synuclein fibrillization with and without SERF1a. The class given is physicochemical. The following applies: Aβ 25 μM, α-synuclein 50 μM, 25 °C, shaking.
Protocol: For SERF1a and α-synuclein aggregation assay, α-Synuclein at 50 μM in Tris buffer (10 mM Tris-HCl, pH 7.4, and 150 mM NaCl) was incubated with different SERF1a concentrations in a 384-well ELISA plate. ThT at 10 μM was added in the samples. The samples were constantly rotated at 400 rpm during the incubation. ThT fluorescence was measured at 485 nm with an excitation of 442 nm at 25 °C by a microplate reader (SpectraMax M5; Molecule Devices) with SoftMax Pro 5.4. The data from independent trials were averaged, and the standard deviations were calculated.
were incubated at 25 °C with continuous shaking at 800 rpm. ThT fluorescence at 485 nm was monitored with excitation at 442 nm. The error bars represent standard deviation.
Data set [4] concerns the target B2. The data set is described as follows: ITC; 250 μM SERF1a in syringe injected into 50 μM Htt-3 or NT17 in the cell; 10 mM PB pH 7.4, 26 °C, 1.5 μl injections. The following applies: both partners purified.
A further data set addresses α-Synuclein, P37840. Briefly: other fluorescence titration; tyrosine fluorescence of Aβ or α-synuclein titrated with SERF1a at different concentrations; quenching fitted. The following applies: remark: other sources report otherwise.
Data set [5] concerns the target Htt-3 peptide (four prolines at a/d positions of the polyQ region). Briefly: ITC; 250 μM SERF1a in syringe injected into 50 μM Htt-3 or NT17 in the cell; 10 mM PB pH 7.4, 26 °C, 1.5 μl injections.
The target in data set [6] is B1. The description is as above. The following applies: both partners purified.
Data set [7] deals with the molecule itself. The data set is described as follows: AUC; sedimentation velocity; NT17 and Htt-3 at 50 μM, Htt-0, Htt-1, Htt-2, Htt-4 and Htt-5 at 30 μM, in 10 mM PB pH 7.4, 42,000 rpm for 24 h at 25 °C; c(s) distribution, SEDFIT.

Values joined by “and” are separate entries in the source; they are usually repeats but may differ in a detail not shown here. Identical values can stand only once. Where a SMILES comes first, the peptide text is derived from it.

`CSCC[C@H](NC(=O)[C@H](CC(C)C)NC(=O)[C@H](CCCCN)NC(=O)[C@H](CCC(=O)O)NC(=O)[C@H](CC(C)C)NC(=O)[C@@H](NC(=O)[C@H](C)NC(=O)[C@@H](N)CCSC)[C@@H](C)O)C(=O)N[C@@H](CCCCN)C(=O)N[C@@H](C)C(=O)N[C@@H](Cc1ccccc1)C(=O)N[C@@H](CCC(=O)O)C(=O)N[C@@H](CO)C(=O)N[C@@H](CC(C)C)C(=O)N[C@@H](CCCCN)C(=O)N[C@@H](CO)C(=O)N[C@@H](Cc1ccccc1)C(=O)N1CCC[C@H]1C(=O)N[C@@H](CCC(N)=O)C(=O)N[C@@H](CCC(N)=O)C(=O)N1CCC[C@H]1C(=O)N[C@@H](CCC(N)=O)C(=O)N[C@@H](CCC(N)=O)C(=O)N[C@@H](CCC(N)=O)C(=O)N1CCC[C@H]1C(=O)N[C@@H](CCC(N)=O)C(=O)N[C@@H](CCC(N)=O)C(=O)N1CCC[C@H]1C(=O)N[C@@H](CCC(N)=O)C(=O)N[C@@H](CCC(N)=O)C(=O)N[C@@H](CCC(N)=O)C(=O)N[C@@H](Cc1ccc(O)cc1)C(=O)N[C@@H](CCCCN)C(=O)O` [Htt-3] (H-MATLEKLMKAFESLKSFPQQPQQQPQQPQQQYK-OH): on SERF1a [1], binding was put at a Kd of 332 nM.

On to α-synuclein, for which binding at SERF1a [2] was characterised by a dissociation constant (Kd) of 20800 ± 8300 nM. The “effect of SERF1a on fibrillization (ThT assay)” value in data set [3] is “accelerated”.

On to B1, for which, in data set [4], the Ka is 1.38e+07 M⁻¹ and binding was put at a Kd of 72.5 nM.

Regarding B2, the Kd (as a rule, the concentration at which binding is half-saturated) was 20800 nM with α-Synuclein, P37840 and 332 nM in data set [5]. This molecule had a Ka in data set [5] of 3.01e+06 M⁻¹. The stoichiometry N – broadly, the number of molecules, sites or subunits per partner or assembly – in data set [5] was 0.5; in data set [6], roughly 0.5.

Regarding MATLEKLMKAFESLKSFQQQQQQQQQQQQQQPPP [Htt-0, wild-type Htt peptide of 33 amino acids], in data set [7], the “stoichiometry N” value was found to be 2.

As for MATLEKLMKAFESLKSFLQQLQQQLQQLQQQPPP [Htt-1, Htt peptide with four leucines in the polyQ region], the “stoichiometry N” value in data set [7] was 5 and 8.
